The text below walks through data of patent US20260240998A1 (JICHI MEDICAL UNIVERSITY, published 2026).

For the assay, the target named is T1, B-cell maturation antigen (BCMA) (human, UniProt Q02223 1-184).
T1 sequence (looked up): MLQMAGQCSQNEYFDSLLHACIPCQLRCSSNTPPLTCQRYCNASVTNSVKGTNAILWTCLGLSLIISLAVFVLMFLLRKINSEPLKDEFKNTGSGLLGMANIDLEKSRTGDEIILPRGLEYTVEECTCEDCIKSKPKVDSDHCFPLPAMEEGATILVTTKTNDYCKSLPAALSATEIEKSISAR
In words: cell-based or functional assay.

B1: BCMA-CAR (L20H), LH construct derived from anti-BCMA antibody 1 with a 20 amino acid linker (other)
chain: DIVLTQSPASLAVSLGQRATISCRASKSVSTSGYSYMHWYQQKPGQPPRLLIYLASNLESGVPARFSGSGSGTDFTLNIHPVEEEDAATYYCQHSRELPFTFGSGTKLEIKGGGGSGGGGSGGGGSGGGGSEVQLQQSGPELVKPGASVKMSCKASGYTFTNYIIHWVKQKPGQGLEWIGYIIPYNDGSKYNEKFKGKATLTSDKSSSTAYMELSSLTSEDSAVYYCARLTFSYDSYAMDYWGQGTSVTVSSATGAAAIEVMYPPPYLDNEKSNGTIIHVKGKHLCPSPLFPGPSKPFWVLVVVGGVLACYSLLVTVAFIIFWVRSKRSRLLHSDYMNMTPRRPGPTRKHYQPYAPPRDFAAYRSRVKFSRSADAPAYQQGQNQLYNELNLGRREEYDVLDKRRGRDPEMGGKPRRKNPQEGLYNELQKDKMAEAYSEIGMKGERRRGKGHDGLYQGLSTATKDTYDALHMQALPPR
With B1, the “luminescence intensity ratio of the U266 co-culture group to the control group (transduced cells only)” value is 62.8 times.
